Source: patent US20260022175A1 (Chugai, published 2026)
Numbering of substitutions follows the chain as printed. Names may count otherwise. Blank lines part the entries; values can stand above or below the binder they belong to.

Assays:
[1] = molecular target: T1, hCTLA4-His-BAP (human CTLA4 extracellular region with C-terminal His-tag and BAP-tag) (human, biotin on the BAP-tag); test: SPR 37C, hCTLA4 1000 nM, no ATP; no ATP; binding amount at 1000 nM hCTLA4
T1 construct: also called hCTLA4-His-Biotin

[2] = molecular target: T1, hCTLA4-His-BAP (human CTLA4 …); test: SPR 37C, hCTLA4 1000 nM, ATP 1 µM; ATP 1 µM; binding amount at 1000 nM hCTLA4
[3] = molecular target: T1, hCTLA4-His-BAP (human CTLA4 …); test: SPR 37C, hCTLA4 1000 nM, ATP 10 µM; ATP 10 µM; binding amount at 1000 nM hCTLA4
[4] = molecular target: T1, hCTLA4-His-BAP (human CTLA4 …); test: SPR 37C, ATP 100 µM; ATP 100 µM
[5] = molecular target: T1, hCTLA4-His-BAP (human CTLA4 …); test: SPR 37C, hCTLA4 1000 nM, ATP 100 µM; ATP 100 µM; binding amount at 1000 nM hCTLA4
[6] = molecular target: T2, human FcγRIIIa F allotype extracellular domain with C-terminal His-tag (human, UniProt P08637 17-208); test: SPR Biacore T200, Ab captured via Fab-kappa, pH 7.4, 25C;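 note: each FcγR flowed as analyte over the captured antibodies, KD derived by 1:1 Langmuir or steady-state affinity fitting depending on the receptor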
T2 construct: extracellular domain; also called hFcγR IIIa F

[7] = molecular target: T3, human FcγRIa extracellular domain with C-terminal His-tag (human, UniProt P12314 16-292); test: as above
T3 construct: extracellular domain; also called hFcγR Ia; hFcγRIa

[8] = molecular target: T4, human FcγRIIa H allotype extracellular domain with C-terminal His-tag (human, UniProt P12318 34-217); test: as above
T4 construct: extracellular domain; also called hFcγR IIa H
T4 sequence (looked up): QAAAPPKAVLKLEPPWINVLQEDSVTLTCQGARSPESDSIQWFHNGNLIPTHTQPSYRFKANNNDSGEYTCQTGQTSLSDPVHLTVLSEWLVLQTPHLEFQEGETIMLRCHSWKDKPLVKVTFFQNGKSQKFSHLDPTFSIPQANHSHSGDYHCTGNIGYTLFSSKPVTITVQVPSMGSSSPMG

[9] = molecular target: T5, human FcγRIIa R allotype extracellular domain with C-terminal His-tag (human, UniProt P12318 34-217); test: as above
T5 construct: extracellular domain; also called hFcγR IIa R
T5 sequence (looked up): T4 sequence (looked up) with H134R

[10] = molecular target: T6, human FcγRIIIa V allotype extracellular domain with C-terminal His-tag (human, UniProt P08637 17-208); test: as above
T6 construct: extracellular domain; also called hFcγR IIIa V

[11] = molecular target: T3, human FcγRIa extracellular domain with …; test: SPR; KD of 04H1389-G1m/04L1615-k0MT divided by KD of variant
[12] = molecular target: T4, human FcγRIIa H allotype extracellular …; test: as above
[13] = molecular target: T5, human FcγRIIa R allotype extracellular …; test: as above
human FcRn [14] = molecular target: T7, human FcRn (human, UniProt P55899 24-290; P61769 21-119); test: as above
T7 construct: Prepared by the method of WO 2010/107110; also called hFcRn

[15] = molecular target: T6, human FcγRIIIa V allotype extracellular …; test: as above
[16] = molecular target: T8, human FcγRIIb extracellular domain with C-terminal His-tag (human, UniProt P31994 43-217); test: SPR; binding amount divided by that of 04H1389-G1m/04L1615-k0MT
T8 construct: extracellular domain; also called hFcγR IIb
T8 sequence (looked up): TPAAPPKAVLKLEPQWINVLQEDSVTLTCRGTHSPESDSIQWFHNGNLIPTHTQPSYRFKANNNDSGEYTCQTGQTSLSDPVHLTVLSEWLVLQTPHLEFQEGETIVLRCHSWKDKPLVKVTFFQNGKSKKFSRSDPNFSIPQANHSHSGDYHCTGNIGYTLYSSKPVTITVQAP

[17] = molecular target: T8, human FcγRIIb extracellular domain with …; test: SPR; FcγRIIb bound amount per unit captured Ab
human FcRn [18] = molecular target: T7, human FcRn; test: SPR Biacore T200, Ab captured via Fab-kappa, pH 6.0, steady state

T6 sequence (P08637 17-208 F176V): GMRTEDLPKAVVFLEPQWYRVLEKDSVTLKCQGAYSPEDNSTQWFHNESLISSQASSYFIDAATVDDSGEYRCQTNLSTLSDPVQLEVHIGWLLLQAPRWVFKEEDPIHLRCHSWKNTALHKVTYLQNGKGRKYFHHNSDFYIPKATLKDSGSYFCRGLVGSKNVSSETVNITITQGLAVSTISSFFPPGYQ
T1 sequence (chain, as listed by the source limits assumed): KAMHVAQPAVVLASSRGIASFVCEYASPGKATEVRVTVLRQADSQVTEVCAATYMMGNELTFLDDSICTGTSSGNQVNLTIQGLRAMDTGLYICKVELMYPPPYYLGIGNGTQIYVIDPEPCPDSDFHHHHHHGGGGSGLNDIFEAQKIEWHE
T2 sequence (P08637 17-208): as the sequence (P08637 17-208 F176V) above, with V160F counted along it
T3 sequence (P12314 16-292): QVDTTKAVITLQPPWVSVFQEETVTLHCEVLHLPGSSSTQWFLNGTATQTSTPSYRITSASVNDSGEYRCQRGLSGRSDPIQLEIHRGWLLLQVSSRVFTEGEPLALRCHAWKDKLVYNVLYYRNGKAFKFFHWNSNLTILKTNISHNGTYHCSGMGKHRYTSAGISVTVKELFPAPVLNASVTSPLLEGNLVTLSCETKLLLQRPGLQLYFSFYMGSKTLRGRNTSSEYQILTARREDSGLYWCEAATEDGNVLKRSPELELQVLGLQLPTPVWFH

B2: 04H1389-Ks462/04L1615-k0MT//04H1389-Hs445/04L1615-k0MT (antibody, human IgG1, kappa)
heavy 1: EVQLVESGGGLVKPGGSLRLSCAASGFTFSSKTMNWVRQAPGKGLEWVSSISTQSHYIYYAESVKGRFTISRDNAKNSLYLQMNSLRAEDTAVYYCARYGKREDMLWVFDYWGQGTLVTVSSASTKGPSVFPLAPSSKSTSGGTAALGCLVKDYFPEPVTVSWNSGALTSGVHTFPAVLQSSGLYSLSSVVTVPSSSLGTQTYICNVNHKPSNTKVDKRVEPKSCDKTHTCPPCPAPEFQWGPMVFLFPPKPKDVLMISRTPEVTCVVVDVSDEEPEVKFNWYVDGVEVHNAKTKPREEQYNATYRVVSVLPVLHQDWLNGKEYKCKVSNDALPAPIEKTISKAKGQPREPQVYTLPPSREEMTKNQVSLWCLVKGFYPSDIAVEWESNGQPENNYKTTPPVLDSDGSFFLYSKLTVDKSRWQQGNVFSCSVMHEALHNHYTQKSLSLSP
heavy 2: EVQLVESGGGLVKPGGSLRLSCAASGFTFSSKTMNWVRQAPGKGLEWVSSISTQSHYIYYAESVKGRFTISRDNAKNSLYLQMNSLRAEDTAVYYCARYGKREDMLWVFDYWGQGTLVTVSSASTKGPSVFPLAPSSKSTSGGTAALGCLVKDYFPEPVTVSWNSGALTSGVHTFPAVLQSSGLYSLSSVVTVPSSSLGTQTYICNVNHKPSNTKVDKRVEPKSCDKTHTCPPCPAPELLAGPSVFLFPPKPKDVLMISRTPEVTCVVVDVSHEEPEVKFNWYVDGVEVHNAKTKPREEQYNATYRVVSVLPVLHQDWLNGKEYKCKVSNDALPKPDEETISKAKGQPREPQVYTLPPSREEMTKNQVSLSCAVKGFYPSDIAVEWESNGQPENNYKTTPPVLDSDGSFFLVSKLTVDKSRWQQGNVFSCSVMHEALHNHYTQKSLSLSP
light: DIVMTQSPLSLPVTPGEPASISCQGPSTGVGDYNYVHWYQQKPGQAPRLLIYFTSKKPSGVPDRFSGSGSGTDFTLKISRVEAEDVGVYYCQTYAAPLGPMFGQGTKLEIKRTVAAPSVFIFPPSDEQLKSGTASVVCLLNNFYPREAKVQWKVDNALQSGNSQESVTEQDSKDSTYSLSSTLTLSKADYEKHKVYACEVTHQGLSSPVTKSFNRGEC
notes: Heterodimerized antibody
Kd [6]: 2.1 nM
Kd [7]: 0.047 nM
Kd [8]: 67 nM
Kd [9]: 160 nM
Kd [10]: 1.1 nM
Relative value to KD between G1m and hFcγRs [11]: 1
Relative value to KD between G1m and hFcγRs [12]: 15.8
Relative value to KD between G1m and hFcγRs [13]: 9.1
Relative value to KD between G1m and hFcRn (human FcRn [14]): 0.8
Relative value to KD between G1m and hFcγRs [15]: 830
Relative binding amount [16]: 2.6
Binding amount [17]: 0.03
Kd (human FcRn [18]): 1600 nM

B4: 04H1389-Ks473/04L1615-k0MT//04H1389-Hs482/04L1615-k0MT (antibody)
heavy 1: B2 heavy 1 with N439A, Y441T, Q443R, S445E
heavy 2: B2 heavy 2 with N439A, Y441T, Q443R, S445E
light: B2 light
notes: Heterodimerized antibody with N434A/Y436T/Q438R/S440E
Kd [6]: 2.3 nM
Kd [7]: 0.051 nM
Kd [8]: 75 nM
Kd [9]: 160 nM
Kd [10]: 1.2 nM
Relative value to KD between G1m and hFcγRs [11]: 0.9
Relative value to KD between G1m and hFcγRs [12]: 14.1
Relative value to KD between G1m and hFcγRs [13]: 9
Relative value to KD between G1m and hFcRn (human FcRn [14]): 2.9
Relative value to KD between G1m and hFcγRs [15]: 760
Relative binding amount [16]: 2.3
Binding amount [17]: 0.026
Kd (human FcRn [18]): 450 nM

B5: 04H1389-Ks481/04L1615-k0MT//04H1389-Hs498/04L1615-k0MT (antibody)
heavy 1: B2 heavy 1 with I337E, N439A, Y441T, Q443R, S445E
heavy 2: B2 heavy 2 with K335A, D337E, N439A, Y441T, Q443R, S445E
light: B2 light
notes: as for B4
Kd [6]: 1.3 nM
Kd [7]: 0.028 nM
Kd [8]: 190 nM
Kd [9]: 260 nM
Kd [10]: 0.6 nM
Relative value to KD between G1m and hFcγRs [11]: 1.6
Relative value to KD between G1m and hFcγRs [12]: 5.6
Relative value to KD between G1m and hFcγRs [13]: 5.6
Relative value to KD between G1m and hFcRn (human FcRn [14]): 2.8
Relative value to KD between G1m and hFcγRs [15]: 1500
Relative binding amount [16]: 2
Binding amount [17]: 0.023
Kd (human FcRn [18]): 460 nM

The remaining lines, values ahead:

Binding to Human CTLA4 [1]: 0.004 per unit amount of antibody
Binding to Human CTLA4 [2]: 0.007 per unit amount of antibody
Binding to Human CTLA4 [3]: 0.041 per unit amount of antibody
Kd [4]: 320 nM
Binding to Human CTLA4 [5]: 0.114 per unit amount of antibody
B1: 04H1077-G1m/04L1034-lam1 (antibody, human IgG1, lambda, V domains shown)
VH: EVQLVESGGDLVKPGGGLRLSCAASGFTFSSRTMNWVRQAPGKGLEWVSSISTRSGYIYYAESVKGRFTISRDNAKNSLYLQMNSLRAEDTAVYYCARYGKREDMLWVFDYWGQGTLVTVSS
VL: QSALTQPPSASGSPGQTVTISCDGPSTDVGDYNWVSWYQQHPGKAPKLMIYFTSKKPSGVPDRFSGSKSGNTASLTVSGLQAEDEADYFCSTYAAPLGPMFGGGTKLTVLG

Kd [6]: 1.2 nM
Kd [7]: 0.03 nM
Kd [8]: 160 nM
Kd [9]: 250 nM
Kd [10]: 0.56 nM
Relative value to KD between G1m and hFcγRs [11]: 1.5
Relative value to KD between G1m and hFcγRs [12]: 6.7
Relative value to KD between G1m and hFcγRs [13]: 5.9
Relative value to KD between G1m and hFcRn (human FcRn [14]): 0.8
Relative value to KD between G1m and hFcγRs [15]: 1630
Relative binding amount [16]: 2.1
Binding amount [17]: 0.024
Kd (human FcRn [18]): 1700 nM
B3: 04H1389-Ks461/04L1615-k0MT//04H1389-Hs443/04L1615-k0MT (antibody, human IgG1, kappa)
heavy 1: B2 heavy 1 with I337E
heavy 2: B2 heavy 2 with K335A, D337E
light: B2 light
notes: Heterodimerized antibody
